The test system of this series is K4 kissing-loop RNA reporter. Briefly: apparent KD of K4 kissing-loop reporter; higher = weaker reporter binding. Conditions: Eterna round: R107. The protocol: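 RNA-MaP round R107: designed RNA switches with theophylline, tryptophan, arginine or FMN aptamers are transcribed on-chip within common flanks. They are titrated with a labelled K4 kissing-loop RNA reporter in RNA-MaP buffer (100 mM Tris pH 7.5, 80 mM KCl, 4 mM MgCl2), without ligand or with the indicated ligand. Median apparent KD per design.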

Where [1] appears, read: input ligand: theophylline 20 uM.
[2] abbreviates: input ligand: tryptophan 2.4 mM.
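Also: bound reporter read as fluorescence of individual clusters on recovered sequencing chips by microscopy, with normalized cluster intensities fitted with a binding model.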

As to “AGUGCAUGCUCGGCCGCCACUCAGAAGAAGAUAGAAGUGAUGUUUCUAAUGAUGAGAAUAAUAAAGAGGACCGGGAGAUGUGCAA [First try]”, the “apparent KD of K4 kissing-loop reporter” value reads like this: (input ligand: FMN 200 uM) 122 nM; (input ligand: arginine 13.2 mM) 125 nM; (input ligand: none) 149 nM; under setting [1], 164 nM; under setting [2], 116 nM.

Take “AGUGGACGUGUCCGGAGUGAUGUUCCGGAUACCAGACACGAAAGUGUCCCUUGGCAGCAGGAGUGAUGUUCCGGCGUUCACUAAA [Omei KL Theo A Exc B v3]”: the “apparent KD of K4 kissing-loop reporter” value is 351 nM (input ligand: FMN 200 uM); 223 nM (input ligand: arginine 13.2 mM); 314 nM (input ligand: none); 347 nM under setting [1]; 274 nM under setting [2].

For “AGUGUCAGUGAUGUUGAGAAGAUGGGUACUAAGGAUAUGCGGCGAUGCAGAAGGUAGAAUGAUUAGUUCGCAUGUUAUGAGGGAU [theeternabot_exclusion_KL_FMN_A_46]”, the “apparent KD of K4 kissing-loop reporter” value runs as follows: (input ligand: FMN 200 uM) 484 nM; (input ligand: arginine 13.2 mM) 364 nM; (input ligand: none) 573 nM; under setting [1], 487 nM; under setting [2], 336 nM.

For the sequence “AUAAACUUGCAGUGAUGUUGCAAGUAAGACUAGGAUAUCAGGAAACUGAGAAGGAGUCAUCUCCUUCAAACAUCACUAUGAAGGA [[K1]-[K2]-[F1]-[F2]-[F]'-[K]'-[F]''_Design5]”, the “apparent KD of K4 kissing-loop reporter” value (input ligand: FMN 200 uM) was 507 nM; the “apparent KD of K4 kissing-loop reporter” value (input ligand: arginine 13.2 mM) turned out to be 263 nM; the “apparent KD of K4 kissing-loop reporter” value (input ligand: none) is 384 nM; the “apparent KD of K4 kissing-loop reporter” value under setting [1] worked out at 413 nM; the “apparent KD of K4 kissing-loop reporter” value under setting [2] was 331 nM.

On to “AUAAACUUGCAGUGAUGUUGCAAGUAAGACUAGGAUAUCAGGAAGCUGAGAAGGAGUCAUCUCCUUCAAACAUCACUAUGAAGGA [whbob_SS_FMNA__2th177]”, for which the “apparent KD of K4 kissing-loop reporter” value is 413 nM (input ligand: FMN 200 uM); 245 nM (input ligand: arginine 13.2 mM); 289 nM (input ligand: none); 328 nM under setting [1]; 253 nM under setting [2].

For the sequence “AUAAAUAAUAAUGACUGAGAGUUUGGUGAGCGAGGACCGGUACGGCCGCCACUCGUACAUGAGUGAUGUUCUUGUAUGAGUCAGA [KL-XTryp-A6 #analogue]”, the “apparent KD of K4 kissing-loop reporter” value is, setting by setting: (input ligand: FMN 200 uM) 127 nM; (input ligand: arginine 13.2 mM) 97.6 nM; (input ligand: none) 95.6 nM; under setting [1], 97.6 nM; under setting [2], 105 nM.

Take “AUAAUCUUGCAGUGAUGUUGCAAGAAAGCUCAGGAUAUCAGGAAACUGAGAAGGGAGCAUCCUGAGCACUUGCAACAGUGCUCAG [[K1]-[K2]-[F1]-[F2]-[F]'-[K]'-[F]''_Design3]”: the “apparent KD of K4 kissing-loop reporter” value runs as follows: (input ligand: FMN 200 uM) 127 nM; (input ligand: arginine 13.2 mM) 100 nM; (input ligand: none) 296 nM; under setting [1], 288 nM; under setting [2], 117 nM.

As to “AUACGCGAUAGCGUAUAUAACAAAUCAGAAGGAGCGUGGAAGUACACAGGUAGGUCGCUGAAAAUAGGACUAGUGAUGUUAGUUA [JR_Nu_SSArginiA_Sub026]”, the “apparent KD of K4 kissing-loop reporter” value (input ligand: FMN 200 uM) is 211 nM; the “apparent KD of K4 kissing-loop reporter” value (input ligand: arginine 13.2 mM) was 193 nM; the “apparent KD of K4 kissing-loop reporter” value (input ligand: none) was 232 nM; the “apparent KD of K4 kissing-loop reporter” value under setting [1] stood at 172 nM; the “apparent KD of K4 kissing-loop reporter” value under setting [2] came to 166 nM.

As to “AUAGGAGUGAUGUUCCUUAGUCCCUCCGAUACCAGUAUGGAAACAUACCCUUGGCAGCGGUGGACCGCAGAUUAGGAAACUAGUC [Theophylline A K4 4]”, the “apparent KD of K4 kissing-loop reporter” value is, setting by setting: (input ligand: FMN 200 uM) 232 nM; (input ligand: arginine 13.2 mM) 238 nM; (input ligand: none) 216 nM; under setting [1], 231 nM; under setting [2], 206 nM.

In the case of “AUAGGAGUGAUGUUCCUUAGUUUCUCCGAUACCAGUAUGGAAACAUACCCUUGGCAGCGGUAAACCGCAGAUUAGGAAACUAGUC [Theophylline A K4 2]”, the “apparent KD of K4 kissing-loop reporter” value runs as follows: (input ligand: FMN 200 uM) 308 nM; (input ligand: arginine 13.2 mM) 332 nM; (input ligand: none) 324 nM; under setting [1], 241 nM; under setting [2], 297 nM.

As for “AUAGGCAUAGCCCGAGUGAUGUUCGACGAUACCAGCCUCGAUAGAGGCCCUUGGCAGCGUAAAUGAUCAUGAAGCCAAGGAAUAA [whbob_Ex_Theo_A_th69]”, the “apparent KD of K4 kissing-loop reporter” value is 342 nM (input ligand: FMN 200 uM); 313 nM (input ligand: arginine 13.2 mM); 442 nM (input ligand: none); 353 nM under setting [1]; 313 nM under setting [2].

Consider “AUAUACCAGUGAUGUUGGUAUACUAUCGAUACCAGUAGAUACCAAUACCCUUGGCAGCGAUAAGACCGUACUGUAGCCAGUACUU [Theo A SS t4]”, for which the “apparent KD of K4 kissing-loop reporter” value (input ligand: FMN 200 uM) came out at 250 nM; the “apparent KD of K4 kissing-loop reporter” value (input ligand: arginine 13.2 mM) came to 191 nM; the “apparent KD of K4 kissing-loop reporter” value (input ligand: none) was 255 nM; the “apparent KD of K4 kissing-loop reporter” value under setting [1] was 340 nM; the “apparent KD of K4 kissing-loop reporter” value under setting [2] is 225 nM.

As to “AUAUAGUGAUGUUAUAUAAUAAUCUCUGAUACCAGUCAUUUAGAAGACCCUUGGCAGCAGCUAUAUAUAGGGAAACAAUACAUAA [AstrosExytheA#1]”, the “apparent KD of K4 kissing-loop reporter” value reads like this: (input ligand: FMN 200 uM) 739 nM; (input ligand: arginine 13.2 mM) 649 nM; (input ligand: none) 709 nM; under setting [1], 925 nM; under setting [2], 491 nM.

As for “AUAUUGGUUGAGAGUGAUGUUCCUUGUGUUCGAGGACCGGUACGGCCGCCACUCGGGUAGAAAAUAAAAGAUGUGUUUGAUUUUU [BDazzled - #13 SS Tryptophan A]”, the “apparent KD of K4 kissing-loop reporter” value runs as follows: (input ligand: FMN 200 uM) 237 nM; (input ligand: arginine 13.2 mM) 101 nM; (input ligand: none) 125 nM; under setting [1], 185 nM; under setting [2], 212 nM.

On to “AUCACAGUGAUGUUGUGAUAUACUUCAGAUACCAGACUAGUGCUAGUCCCUUGGCAGCUGAACUCAGCAGCACCACUAGCACUCG [Theo A Ex t6a]”, for which the “apparent KD of K4 kissing-loop reporter” value (input ligand: FMN 200 uM) was 153 nM; the “apparent KD of K4 kissing-loop reporter” value (input ligand: arginine 13.2 mM) is 130 nM; the “apparent KD of K4 kissing-loop reporter” value (input ligand: none) came out at 139 nM; the “apparent KD of K4 kissing-loop reporter” value under setting [1] amounted to 144 nM; the “apparent KD of K4 kissing-loop reporter” value under setting [2] was found to be 134 nM.

Consider “AUCACAGUGAUGUUGUGAUAUGAUUCAGAUACCAGACUAGUGCUAGUCCCUUGGCAGCUGAACUCAGCAGCACCACUAGCACUCU [Theo A Ex t6]”, for which the “apparent KD of K4 kissing-loop reporter” value is, setting by setting: (input ligand: FMN 200 uM) 157 nM; (input ligand: arginine 13.2 mM) 132 nM; (input ligand: none) 148 nM; under setting [1], 166 nM; under setting [2], 149 nM.

As to “AUCGAGCCCAUCGGUGAGUCAUUAGUUGAUACCAGAGCUAUUGGCCUCCCUUGGCAGCAAGUAAACCUGUUUAGUGAUGUUAAAC [theeternabot_exclusion_KL_Theo_A_15]”, the “apparent KD of K4 kissing-loop reporter” value is, setting by setting: (input ligand: FMN 200 uM) 178 nM; (input ligand: arginine 13.2 mM) 150 nM; (input ligand: none) 168 nM; under setting [1], 162 nM; under setting [2], 157 nM.

Turning to “AUCGGGAAUACGGCCGCCACUAUAGAGGCGACUACAUACCACCACAGUGAUGUUGUGCUGACCAGUAGGACCGGGUAAAAUCGAU [theeternabot_exclusion_KL_Trp_B_49]”, the “apparent KD of K4 kissing-loop reporter” value was found to be 817 nM (input ligand: FMN 200 uM); 594 nM (input ligand: arginine 13.2 mM); 871 nM (input ligand: none); 726 nM under setting [1]; 672 nM under setting [2].

In the case of “AUCGUUGUCUGAGGAUAUCGAUUAACUGUAGUGAUGUUACAGAAAAUUCAUAUAAUAUUUUCUAUUCGAGAAGGCAGACUACGUA [JR_ExcFMNB_Sub017]”, the “apparent KD of K4 kissing-loop reporter” value is 167 nM (input ligand: FMN 200 uM); 135 nM (input ligand: arginine 13.2 mM); 144 nM (input ligand: none); 139 nM under setting [1]; 144 nM under setting [2].

Turning to “AUCGUUGUCUGAGGAUAUCGGUUAACUGUAGUGAUGUUACAGAAAAUUCAUAUUAUAUUUUCUAUUCGAGAAGGCAGACUACGUA [JR_Nu3_ExcFMNB_Sub019]”, the “apparent KD of K4 kissing-loop reporter” value came out at 203 nM (input ligand: FMN 200 uM); 141 nM (input ligand: arginine 13.2 mM); 160 nM (input ligand: none); 145 nM under setting [1]; 157 nM under setting [2].

As for “AUCUCGGUAUCAGAUACCAGACUAUCGAUACCGAGUGUAUCGGGUAGUGAUGUUACCAUAGUCCCUUGGCAGCUGGUAGUUCAUA [Theo B SS t9c]”, the “apparent KD of K4 kissing-loop reporter” value is 256 nM (input ligand: FMN 200 uM); 249 nM (input ligand: arginine 13.2 mM); 261 nM (input ligand: none); 280 nM under setting [1]; 213 nM under setting [2].

As for “AUCUUGCAUUCGGCCGCCACUAUCGUGCAGUGAUGUUGCGCGAGUGACGCGUCCCGCAGUGCAGGUAGGACCGGGAAUGAUACCC [Erlazaar]”, the “apparent KD of K4 kissing-loop reporter” value is, setting by setting: (input ligand: FMN 200 uM) 128 nM; (input ligand: arginine 13.2 mM) 119 nM; (input ligand: none) 123 nM; under setting [1], 112 nM; under setting [2], 125 nM.

Values taken from the supplement of paper PMC9170038.
